# In PMC2187830 (The Journal of Experimental Medicine, 1990):
# T1: murine IL-7 receptor (mouse (endogenous in IxN/2b), UniProt P16872 21-459)
# T1 sequence: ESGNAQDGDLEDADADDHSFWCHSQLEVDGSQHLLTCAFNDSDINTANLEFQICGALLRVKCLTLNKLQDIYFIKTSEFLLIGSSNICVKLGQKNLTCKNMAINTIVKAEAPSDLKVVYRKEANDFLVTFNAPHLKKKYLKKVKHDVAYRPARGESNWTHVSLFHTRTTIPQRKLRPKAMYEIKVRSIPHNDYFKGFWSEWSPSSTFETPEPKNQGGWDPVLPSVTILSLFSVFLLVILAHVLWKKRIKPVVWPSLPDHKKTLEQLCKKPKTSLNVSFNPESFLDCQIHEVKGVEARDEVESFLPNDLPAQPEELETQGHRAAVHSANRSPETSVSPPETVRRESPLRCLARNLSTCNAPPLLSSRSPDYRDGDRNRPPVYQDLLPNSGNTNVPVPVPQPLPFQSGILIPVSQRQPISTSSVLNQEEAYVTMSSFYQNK
# B1: 125I-labeled recombinant murine IL-7 (ligand)
# chain: ECHIKDKEGKAYESVLMISIDELDKMTGTDSNCPNNEPNFFRKHVCDDTKEAAFLNRAARKLKQFLKMNISEEFNVHLLTVSQGTQTLVNCTSKEEKNVKEQKKNDACFLKRLLREIKTCWNKILKGSI
# modifications: 125I on the single tyrosine residue (amino acid 12), nearly quantitatively radiolabeled
# Assays:
# [1] = target: T1, murine IL-7 receptor; assay: radioligand binding
# [2] = target: T1, murine IL-7 receptor; assay: radioligand binding; remark: listed apart in the source
binder,measurement,setting,value
B1,"apparent Ka, high affinity component",[1],1.2e+10 M⁻¹
same,"apparent Ka, low affinity component",[2],4.8e+08 M⁻¹
